From patent publication US20240376180A1 (DEUTSCHES ZENTRUM FUR NEURODEGENERATIVE ERKRANKUNGEN E V …, published 2024) come the findings set out here.

The target of assay [1] is SARS-CoV-2 S protein-RBD-mFc (SARS-CoV-2, UniProt P0DTC2 319-537).
The target of assay [2] is beta-2 microglobulin (Homo sapiens (Human), UniProt P61769 21-119). The assay can be described thus: routine laboratory ELISA. Background: In an ELISA, binding on a coated surface is turned into a signal by an enzyme label.
Assay [3] concerns the target T1, Spike protein of authentic SARS-CoV-2 (Munich isolate 984) (SARS-CoV-2, UniProt P0DTC2 14-1273). The assay can be described thus: cell-based or functional assay. The arrangement: IC90 Neutralizing Assay: unit not given beside the values.
In assay [4] the target is T1, Spike protein of authentic SARS-CoV-2 …. The assay can be described thus: cell-based or functional assay.
Assay [5] concerns the target Fc fusion protein of the RBD-SD1 region of SARS-CoV (SARS-CoV, UniProt P59594 306-577). The assay can be described thus: ELISA on captured RBD-SD1-Fc.
Assay [6] concerns the target T2, Fc fusion protein of the RBD-SD1 region of MERS-CoV (MERS-CoV, UniProt K9N5Q8 367-655).
T2 sequence: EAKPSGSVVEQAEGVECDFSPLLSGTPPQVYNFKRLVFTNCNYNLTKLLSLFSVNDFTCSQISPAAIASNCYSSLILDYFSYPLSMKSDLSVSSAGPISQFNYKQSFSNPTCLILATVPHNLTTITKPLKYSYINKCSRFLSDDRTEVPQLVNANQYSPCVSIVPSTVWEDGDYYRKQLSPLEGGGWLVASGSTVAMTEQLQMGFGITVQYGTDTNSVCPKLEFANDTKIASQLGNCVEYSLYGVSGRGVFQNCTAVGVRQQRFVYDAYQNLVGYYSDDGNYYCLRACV
The assay can be described thus: ELISA on captured RBD-SD1-Fc.

Assay [7] concerns the target T3, Fc fusion protein of the RBD-SD1 region of HCoV-HKU1 (HCoV-HKU1, UniProt Q5MQD0 310-677).
T3 construct: domain: RBD-SD1 region
T3 sequence: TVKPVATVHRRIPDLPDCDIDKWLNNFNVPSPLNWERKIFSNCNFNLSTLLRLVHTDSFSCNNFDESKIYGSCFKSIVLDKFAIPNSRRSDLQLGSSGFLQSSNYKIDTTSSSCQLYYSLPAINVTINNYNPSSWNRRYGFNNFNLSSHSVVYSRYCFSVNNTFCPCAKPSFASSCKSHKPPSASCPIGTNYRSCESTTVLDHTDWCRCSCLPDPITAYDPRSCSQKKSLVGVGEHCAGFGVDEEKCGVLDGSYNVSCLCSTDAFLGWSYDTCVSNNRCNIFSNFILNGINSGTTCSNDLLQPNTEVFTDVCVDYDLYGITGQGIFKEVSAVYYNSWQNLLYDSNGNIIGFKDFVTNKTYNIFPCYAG
The assay can be described thus: ELISA on captured RBD-SD1-Fc.

Assay [8] addresses T4, Fc fusion protein of the RBD-SD1 region of HCoV-OC43 (HCoV-OC43, UniProt P36334 318-675).
T4 construct: domain: RBD-SD1 region
T4 sequence: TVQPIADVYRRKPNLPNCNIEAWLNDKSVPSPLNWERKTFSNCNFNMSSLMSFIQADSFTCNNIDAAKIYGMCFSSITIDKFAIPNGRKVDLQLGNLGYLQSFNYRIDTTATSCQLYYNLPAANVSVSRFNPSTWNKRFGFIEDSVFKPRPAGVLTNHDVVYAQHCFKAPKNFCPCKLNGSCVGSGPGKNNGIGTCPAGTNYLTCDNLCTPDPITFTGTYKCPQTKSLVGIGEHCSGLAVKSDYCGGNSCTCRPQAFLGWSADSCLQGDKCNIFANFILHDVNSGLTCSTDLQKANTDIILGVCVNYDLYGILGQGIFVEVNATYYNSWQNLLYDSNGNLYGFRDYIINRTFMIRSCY
The experiment in a line: ELISA on captured RBD-SD1-Fc.

Assay [9] concerns the target SARS-CoV-2 spike on S-pseudotyped MLV virions (SARS-CoV-2, UniProt P0DTC2 14-1255). The experiment in a line: cell-based or functional assay.
The target of assay [10] is SARS-CoV spike on S-pseudotyped MLV virions (SARS-CoV). The assay can be described thus: cell-based or functional assay.

By Kd is commonly meant the free concentration of one partner at which half of the binding sites on the other are occupied at equilibrium, for simple one-to-one binding.

Bounds are passed on as bounds.

Chain of beta-2 microglobulin (P61769 21-119 limits assumed): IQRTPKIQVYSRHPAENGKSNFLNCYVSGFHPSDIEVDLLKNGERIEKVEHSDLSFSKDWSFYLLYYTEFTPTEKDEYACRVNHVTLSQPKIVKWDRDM

B1: HK CV07-287 (antibody, V domains shown)
VH: QVQLVQSGPEVKKPGTSVKVSCKASGFTFTSSAMQWVRQARGQRLEWIGWIVVGSGNTNYAQKFQERVTITRDMSTSTAYMELSSLRSEDTAVYYCAAPYCSSTNCYDAFDIWGQGTMVTVSS
VL: not shown
Take B1: the Kd in [1] was 0.16 nM. Also, the binding result is given as “no binding (tested: 50 µg/ml)” in assay [2]; “no binding (tested: 1 µg/ml)” in assay [5]; “no binding (tested: 1 µg/ml)” in assay [6]; “no binding (tested: 1 µg/ml)” in assay [7]; “no binding (tested: 1 µg/ml)” in assay [8]. The “IC90 Neutralizing Assay” value in assay [3] is more than 500. For the same molecule, in assay [4], the “IC50 (PRNT, authentic SARS-CoV-2)” value came out at 0.0417 µg/mL.

B2: HL CV07-283 (antibody, V domains shown)
VH: QVQLVQSGAEVKKPGASAKVSCKASGYTFTGYYIHWVRQAPGQGLEWMGLINPISGGTNYAQKFQDRVTMTRDTSISTAYMELSRLRSDDTAVYYCVRGPFYYDSSGPLGGMDVWGQGTTVTVSS
VL: QSALTQPASVSGSPGQSITISCTGTSGDVGGYNYVSWYQQHPGKAPKLMIYEVSNRPSGVSNRFSGSKSGNTASLTISGLQAEDEADYYCSSYTSSSTYVFGTGTKVTVLG
As to B2, binding in assay [1] was put at a Kd of 0.0475 nM. For the same molecule, the binding result was “no binding (tested: 50 µg/ml)” in assay [2]; “no binding (tested: 1 µg/ml)” in assay [5]; “no binding (tested: 1 µg/ml)” in assay [6]; “no binding (tested: 1 µg/ml)” in assay [7]; “no binding (tested: 1 µg/ml)” in assay [8]. For the same molecule, the “IC50 Neutralizing Assay” value in assay [3] was approximately 0.05 µg/mL. In addition, the “IC90 Neutralizing Assay” value in assay [3] was more than 500. In assay [4], the “IC50 (PRNT, authentic SARS-CoV-2)” value stood at 0.0169 µg/mL.

B3: HK CV38-142 (antibody, V domains shown)
VH: EVQLVQSGAEVKKPGESLKISCQGSGYSFTSYWIGWVRQMPGKGLEWMGIIYPGESDTRYSSSFQGHVTISADKSISTAYLQWSSLKASDTAMYYCARIRGVYSSGWIGGDYWGQGTLVTVSS
VL: not shown
Take B3: the “pseudovirus neutralization assay, potency (IC50)” value in assay [9] was 3.5 µg/mL; in assay [10] it was 1.4 µg/mL. In addition, the binding result in [2] was “no binding (tested: 50 µg/ml)”. For the same molecule, in assay [3], the “IC50 Neutralizing Assay” value was approximately 0.05 µg/mL. Also, the “IC50 (PRNT, authentic SARS-CoV-2)” value in [4] came to 0.0232 µg/mL.

B4: HK CV38-113 (antibody, V domains shown)
VH: EVQLVESGGGLVQPGGSLRLSCAASGFTVSSNYMSWVRQAPGKGLEWVSVIYSGGSTYYADSVKGRFTISRHNSKNTLYLQMNSLRAEDTAVYFCARGGRLADAAGDYWGQGTLVTVSS
VL: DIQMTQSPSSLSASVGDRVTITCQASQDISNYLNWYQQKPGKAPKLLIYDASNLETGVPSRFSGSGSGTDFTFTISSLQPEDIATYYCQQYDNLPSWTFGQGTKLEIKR
As to B4, the Kd in assay [1] was 0.134 nM. Besides, the binding result in assay [2] is recorded as “no binding (tested: 50 µg/ml)”; in assay [5], “no binding (tested: 1 µg/ml)”; in [6], “no binding (tested: 1 µg/ml)”; in assay [7] it was “no binding (tested: 1 µg/ml)”; in assay [8], “no binding (tested: 1 µg/ml)”. For the same molecule, in assay [3], the “IC50 Neutralizing Assay” value was approximately 0.05 µg/mL. Also, in [4], the “IC50 (PRNT, authentic SARS-CoV-2)” value is 0.0208 µg/mL.

B5: HL CV07-315 (antibody, V domains shown)
VH: EVQLVESGGGLVQPGRSLRLSCAASGFTFDDYAMHWVRQAPGKGLEWVSGISWNSGSIGYADSVKGRFTISRDNAKNSLYLQMNSLRAEDTALYYCAKDFLWDLHPPRYYGMDVWGQGTTVTVSS
VL: QSVLTRPPSVSAAPGQKVTISCSGSSSNIGNNYVSWYQQLPGTAPKLLIYENNKRPSGIPDRFSGSKSGTSATLGITGLQTGDEADYYCGTWDSSLNGVFGGGTKLTVLG
In [1], B5 displayed a Kd of 0.0112 nM. In addition, the binding result was “no binding (tested: 50 µg/ml)” in [2]; “no binding (tested: 1 µg/ml)” in assay [5]; “no binding (tested: 1 µg/ml)” in assay [6]; “no binding (tested: 1 µg/ml)” in assay [7]; “no binding (tested: 1 µg/ml)” in assay [8]. Also, the “IC50 Neutralizing Assay” value in assay [3] was approximately 0.05 µg/mL. Further, the “IC50 (PRNT, authentic SARS-CoV-2)” value in [4] amounted to 0.0249 µg/mL.

B6: HL CV07-250 (antibody, V domains shown)
VH: QVQLVQSEAEVKEPGASVEVSCKASGYNFTNFAISWVRQAPGQGLEWMGWISGYNGDTNSAQKFLGRVTMTTDTSTTTAYMELRSLRSDDTAVYYCAGSDNYGFPYNGMDVWGQGTTVTVSS
VL: QSALTQPPSASGSPGQSVTISCTGTSSDLGAYHFVTWYQHYPGKAPKVMIYGVRKRPSGVPDRFSGSKSGNTASLTVSGLQDEDEADYYCSSYAGNNDFVFGGGTKLTVLS
As for B6, the Kd in assay [1] was found to be 0.0564 nM. The binding result in [2] was “no binding (tested: 50 µg/ml)”; in assay [5] it was “no binding (tested: 1 µg/ml)”; in [6], “no binding (tested: 1 µg/ml)”; in assay [7], “no binding (tested: 1 µg/ml)”; in assay [8] it was “no binding (tested: 1 µg/ml)”. The “IC90 Neutralizing Assay” value in assay [3] was more than 500. Besides, in assay [4], the “IC50 (PRNT, authentic SARS-CoV-2)” value was 0.0035 µg/mL.
